# Assay results from PMC4690510, “Crystal structure of a novel two domain GH78 family α-rhamnosidase from Klebsiella oxytoca with rhamnose bound” (Proteins, 2015).
# What was measured:
# [1] = biological target: α-L-rhamnosidase from Klebsiella oxytoca (KoRha) (Klebsiella oxytoca KCTC 1686); assay: dynamic light scattering; purified KoRha in solution, DynaPro-Titan instrument, 20°C; hydrodynamic radius 4.8 nm
# purified protein = substrate: C[C@@H]1O[C@@H](Oc2ccc([N+](=O)[O-])cc2)[C@H](O)[C@H](O)[C@H]1O; assay: purified protein; type: biochemical, Klebsiella oxytoca; conditions: 20 mM MES pH 5.0, 10% DMSO in substrate solution
stoichiometry N [1],Molecule,Km (purified protein) [µM],kcat (purified protein) [s⁻¹]
2,α-L-rhamnosidase from Klebsiella oxytoca (KoRha) (enzyme),,
,"KoRha (Klebsiella oxytoca) (protein, synthetic codon-optimised gene in pET15b, E. coli BL21(DE3); residues 11-523 modelled) MSQAIQHNSQVMMTRHPNFLRTAEALRPALSRQAHPPIAVVEAHADAAALFGWRAEPVSTLAAFYQRELSSGDSVIIDFGSHYVGYLHFLCQSAGSPPDAPAHLQLTFGETLSEVCEPFSDYQGWLSSSWLQQQDLWLDVLPAEIDLPRRYCFRYLKVEVKAVSRKFRLQFTQIEVNAVTSASGACPAATTSDPQLRAIDNVAVLTLQNCMQEVFEDGPKRDRRLWLGDLRLQALVNDVTFARHDLVRRCLYLFAGHTREDGMVSANVFVQPDVIADDTFLFDYSLFFVDVLYNYLQSAEDMATARELWPTARRQVELALTRCDASGVVRDSDDWWVFIDWQASLNKQAAAQGVLIYCLQRAIWLAERFEPELAVSYRQRLQQLKSAALDALWDPQQGFYVSGARRQVSWASQIWLVLAEVGTPQQRREIMRNLEKNPPAVAMNTPYLRHHYIAALLQCGLRDEAIAQIKAYWGAMVDYGADTFWEIFDPAHPDFSPYGSKLINSYCHAWSCTPAWFIRQYGL",210 ± 20,0.98
